The target of the test is SARS-CoV-2 receptor-binding domain (RBD) (SARS-CoV-2, UniProt P0DTC2). The test is described as follows: BLI. The note with it: both partners purified.

B1: CB6 (antibody, V domains shown)
VH: EVQLVESGGGLVQPGGSLRLSCAASGFTVSSNYMSWVRQAPGKGLEWVSVIYSGGSTFYADSVKGRFTISRDNSMNTLFLQMNSLRAEDTAVYYCARVLPMYGDYLDYWGQGTLVTVSS
VL: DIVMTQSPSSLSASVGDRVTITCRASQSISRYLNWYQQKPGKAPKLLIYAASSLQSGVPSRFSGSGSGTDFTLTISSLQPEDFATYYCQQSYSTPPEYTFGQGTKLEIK
B1: the binding result is on record as “binds”.

For the origin of these results see publication PMC8564274 (Signal Transduction and Targeted Therapy, 2021).
